{"source": "patent US20160068605A1", "about": "(Janssen / Centocor, published 2016)", "binders": {"B1": {"name": "I3RB18 (antibody, IgG1, V domains shown)", "VH": "EVQLVQSGAEVKKPGESLKISCKGSGYSFTSYWISWVRQMPGKGLEWMGIIDPSDSDTRYSPSFQGQVTISADKSISTAYLQWSSLKASDTAMYYCARGDGSTDLDYWGQGTLVTVSS", "VL": "EIVLTQSPGTLSLSPGERATLSCRASQSVSSSYLAWYQQKPGQAPRLLIYGASSRATGIPDRFSGSGSGTDFTLTISRLEPEDFAVYYCQQDYGFPWTFGQGTKVEIK", "notes": "IgG1; also called 13RB18; mAb I3RB18"}}, "key": {"[1]": {"target": "T1, cyno CD123 ECD displayed on pDisplay-transfected cells (cynomolgus monkey)", "T1 construct": "ECD anchored on the surface of stably transfected HEK293 cells; also called cynoCD123 SP1 cells; cynoCD123 cells", "T1 chain": "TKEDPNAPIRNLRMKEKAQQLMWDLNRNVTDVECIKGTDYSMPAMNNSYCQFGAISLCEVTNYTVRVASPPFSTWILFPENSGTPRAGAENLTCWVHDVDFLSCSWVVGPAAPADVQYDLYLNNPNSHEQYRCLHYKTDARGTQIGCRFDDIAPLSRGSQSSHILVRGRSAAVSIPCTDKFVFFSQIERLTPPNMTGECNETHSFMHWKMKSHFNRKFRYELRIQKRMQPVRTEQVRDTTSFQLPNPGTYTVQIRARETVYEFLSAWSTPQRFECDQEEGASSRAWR", "assay": "MSD-CAT on cyno pDisplay cells", "protocol": "Cell lines used were human pDisplay CD and cyno pDisplay CD123SP1. […] These samples were prepared in DMEM Glutamax medium containing 0.05% Azide, 1% BSA, 3 mM EDTA. The receptor numbers of (3.15-4.18)×10⁶ hCD123/cell and (4.78-9.24) 10⁶ cyCD123/cell were converted to M receptor concentration in the mixture on the basis of the volume of reaction, the cell density (cells/L) and the Avogadro's number. […] After equilibration the plate was centrifuged for 5 min ˜1000 rpm and free anti-CD3 detected on the supernatant. […] The assay buffer was removed without washing and 50 μL/well of 0.7 μg/mL of biotinylated antigen in assay buffer were added to MSD plates and incubated overnight (˜16 hr at 4° C.). After overnight incubation, the plates were blocked by adding 150 μL/well of assay buffer without removing coating antigen, incubated for ˜1 hr at ambient temperature and washed 5 times with wash buffer (assay buffer without BSA). 50 μL/well of the supernantants from samples plate were transferred to antigen-coated plates, incubated for 60 min, and then washed three times with wash Buffer. […] After 1 hr the plates were washed and 150 μL of MSD Read Buffer (prepared by diluting 1:4 of stock into d. H₂O) were added per well. The plates were read immediately on the MSD Sector Imager 6000 Reader for luminescence levels."}, "[2]": {"target": "T2, Recombinant human CD123 SP1 ECD-His tag protein (human, UniProt P26951 20-305)", "T2 construct": "bought from R&D Systems (#301-R3/CF); biotinylated for some assays; also called rhCD123 SP1; huCD123 ECD SP1", "T2 sequence": "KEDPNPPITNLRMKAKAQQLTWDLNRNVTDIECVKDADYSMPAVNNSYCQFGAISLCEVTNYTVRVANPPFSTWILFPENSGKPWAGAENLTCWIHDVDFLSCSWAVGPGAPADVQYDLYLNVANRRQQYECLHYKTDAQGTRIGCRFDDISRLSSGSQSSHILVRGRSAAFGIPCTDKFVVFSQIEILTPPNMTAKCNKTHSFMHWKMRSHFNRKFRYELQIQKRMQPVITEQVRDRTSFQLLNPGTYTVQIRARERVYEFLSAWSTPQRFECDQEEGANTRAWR", "assay": "SPR Biacore T200, captured antibody"}, "[3]": {"target": "T3, human CD123 SP1 ECD displayed on pDisplay-transfected cells (human, UniProt P26951 20-305)", "T3 construct": "ECD anchored on the surface of stably transfected HEK293 cells by the PDGFR transmembrane domain; also called hCD123 SP1 cells; hCD123 cells", "T3 sequence": "T2 sequence", "assay": "MSD-CAT, hCD123 cells, assay-2; apparent KD (bivalent)"}, "[4]": {"target": "T4, Recombinant human CD123 SP2 ECD protein (human, UniProt P26951 101-303)", "T4 construct": "also called rhCD123 SP2; CD123 ECD SP2", "T4 sequence": "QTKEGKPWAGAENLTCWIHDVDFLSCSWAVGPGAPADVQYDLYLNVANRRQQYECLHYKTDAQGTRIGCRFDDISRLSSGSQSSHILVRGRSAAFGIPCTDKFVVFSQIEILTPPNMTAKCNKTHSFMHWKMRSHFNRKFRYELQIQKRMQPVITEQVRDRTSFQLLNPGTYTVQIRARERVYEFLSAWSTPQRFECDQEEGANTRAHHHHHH", "assay": "SPR ProteOn, captured mAb"}, "[5]": {"target": "T2, Recombinant human CD123 SP1 ECD-His tag …", "assay": "SPR ProteOn, captured mAb"}}, "data": [{"binder": "B1", "values": [{"measurement": "Kd", "setting": "[1]", "value": "> 12", "unit": "nM"}, {"measurement": "Kd", "setting": "[2]", "value": 0.935, "unit": "nM"}, {"measurement": "koff", "setting": "[2]", "value": 0.00072, "unit": "s⁻¹"}, {"measurement": "kon", "setting": "[2]", "value": 773000, "unit": "M⁻¹ s⁻¹"}, {"measurement": "Kd", "setting": "[3]", "value": 0.343, "unit": "nM"}, {"measurement": "Kd", "setting": "[4]", "value": 0.363, "unit": "nM"}, {"measurement": "koff", "setting": "[4]", "value": 0.000978, "unit": "s⁻¹"}, {"measurement": "kon", "setting": "[4]", "value": "2.69e+06", "unit": "M⁻¹ s⁻¹"}, {"measurement": "Kd", "setting": "[5]", "value": 0.57, "unit": "nM"}, {"measurement": "koff", "setting": "[5]", "value": 0.00082, "unit": "s⁻¹"}, {"measurement": "kon", "setting": "[5]", "value": "1.44e+06", "unit": "M⁻¹ s⁻¹"}]}]}
